From the RNAGym collection of RNA variant scans (doi:10.1073/pnas.2313332121)

B1: TPR t1 (parent)
chain: GACCAAUCUGCCCUCAGAGCUCGAGAACAUCUUCGGAUGCAGAGGAGGCAGGCUUCGGUGGCGCGAUAGCGCCAACGUCCUCAACCUCCAAUGCAUCCCACCACAUGAUGAUGCCUGAAGAGCCUUGGUUUUUUG

Variants of: B1
Test: polymerase ribozyme fitness, log enrichment relative to wild type (log ratio); higher = more active; in vitro selection for triplet polymerase activity
In short: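 Frozen incubation at −7 °C formed the core of a single, triplicate in vitro selection round applied to PCR-built, transcribed mutant libraries of each subunit of a heterodimeric triplet polymerase ribozyme. Extended constructs were gel-excised, captured with streptavidin beads and amplified by RT-PCR, and input and output libraries were Illumina-sequenced with a filter of ≥10 input reads and ≥1 read per output. Fitness is the logarithm of genotype enrichment relative to wild-type enrichment, with inverse-variance-weighted replicate averaging, and the logarithm is base 2.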

In order of falling “polymerase ribozyme fitness (log ratio)” value:
1. GACCAAUGUGCCCUCAGAGCUCGAGAACAUCUUCGGAUGCAGAGGAGGCAGGCUUCGGUGGCGCGAUAGCGCCAACGUCCUCAACCUCCAAUGCAUCCCACCACAUGAUGAUGCCUGAACAGCCUUGGUUUUUUG  2.34
2. GACCAAUGUGCCCUCAGAGCUCGAGAACAUCUUCGGAUGCAGAGGAGGCAGGCUUCGGUGGCGCGAUAGCGCCAACGUCCUCAACCUCCAAUGCAUCCCACCACAUGAUGAUGCCUGAAAAGCCUUGGUUUUUUG  1.78
3. GACCAAUGUGCCCUCAGAGCUCGAGAACAUCUUCGAAUGCAGAGGAGGCAGGCUUCGGUGGCGCGAUAGCGCCAACGUCCUCAACCUCCAAUGCAUCCCACCACAUGAUGAUGCCUGAAGCGCCUUGGUUGUUUG  1.28
4. GACCAAUGUGCCCUCAGAGCUCGAGAACAUCUUCGGAUGCAGAGGAGGCAGGCUUCGGUGGCGCGAUAGCGCCAACGUCCUCAACCUCCAAUGCAUCCCACCACAUGAUGAUGCCUAAAGAGCCUUGGUUUUUUG  0.795
5. GACCAAUGUGCCCGCAGAGCUCGAGAACAUCUUCGUAUGCAGAGGAGGCAGGCUUCGGUGGUGCGAUAGCGCCAACGUCUUCAACCUCCAAUGCAUCCCACCACAUGAUGAUGCCUGAAAAGCCUUGGUUUUUUG  0.635
6. GACCAAUGUGCCCUCAGAGCUCGAGAACAUCUUCGGAUGCAGAGGAGGCAGGCUUCGGUGCCGCGAUAGCGACAACGUCCUCAACCUCCAAUGCAUUCCACCACAUGAUGAUGCCUGAAGAGCCUUGGUAUUUUG  0.551
7. GACCAAUGUGCCCUCAGAGCUCGAGAACAUCUUCGGAUGCAGAGGAGCCAGGCUUCGGUGGCGCGAUAGCGCCAACGUCCUCAACCUCCUAUGCAUCCCACCACAUGAUGAAGCCUGAAGAGCCUUGGUUUUUUG  0.378
8. GACCAAUGUGCCCUCAGAGCUCGAGAACAUCUUCGGAUGCAGAGAAGGCAGGCUUCGGUGGCGCGAUAGCGCCAACGUCCUCAACCUCCAAUGCAUCCCACCACAUGAUGAUGCCUAAAGAGACUUGGUGUUUUG  0.313
9. GACCAAUGUGCCCUCAGAGCUCGAGAACAUCUUCGGAUGCAGAGCAGACAGGCGUCGGUGGCGCGAUAGCGCCAACGUCCUCAACCUCCAAUGCAUCCCACCACAUGAUGAUGCCUGAAGAGCCUUGGUUUUUUG  0.0312
10. GACCAAUGUGCCCUCAGAGCUCGAGAACAUCUUCGGAUGCAGAGGAUGCAGGCUUCGGUGGCGCGAUAGCGCCAACGUCCUCAACCUCCAAUGCAUCCCACCACAUGAUGAUGCCUGAAGAGCCUUGGUUUUUUG  0.0211
11. GACCAAUGUGCCCACAGAGCUCGAGAACAUCUUCGGAUGCAGAGGAGGCAGGCUUCGCUGGCGCGAUAGCGCCAACGUCCUCAACCUCCAAUGCAUCCCACCACAUGAUGAUGCCUGAAGAGCCUUGGUUUUUUG  -0.0186
12. GACCAAUGGGCGCUCAGAGCUCGAGAACAUCUUCGGAUGCAGAGGAGGGAGGCUUCGGUGGCGCGAUAGCGCCAACGUCCUCAACCUCCAAUGCAUCCCACCACAUGAUGAUGCCUGAAGAGCCUUGGUUUUUUG  -0.256
13. GACCAAUGUGCCCUCAGAGCUCGAGAACAUCUUCGGAUCCAGAGGAGGCAGGCUUCGGUGGAGCGAUAGCGCCAACGUCCUCAACCUCCAAUGCAUCCCACCACAUGAUGAUGCCUGAAGAGCCUUGGUUUUUUG  -0.386
14. GACCAAUGUGCCCUCAGAGCUCGAGAACAUCUUCGGAUGCAGAAGAGGCAGGCUUCGGUGGCGCGAUAGCGCCAACGUCCUCAACCUCCAAUGCAUCCCAUCACAUGAUGAUGCCUGAAGAGCCUUGGUUUUUUG  -0.462
15. GACCAAUGUGCCCUCAGAGCUCGAGAACAUCUUCGGAUGCAGAGGAGGCAGGCUUCGGUGGCACGAUAGCGCCAACGUCCUCAACCUCCAAUGCAUCCCACCACAUGAUGAUGCCUGAAGAGCCUUGGUUUUUUG  -0.627
16. GACCAAUGUUCCCUCAGAGCUCGAGAACAUCUUCGUAUGCAGAGGAGGCAGGCUUCGGUGGCGCGAUAGCGCCAACGUCCUCAACCUCCAAUGCAUCCCACCACAUGAUGAUGCCUGAAGAGCCUUGGUUUUUUG  -0.687
17. GACCAAUGUGCCCUCAGAGCUCGAGAACAUCUUCGGAUACAGAGGAGGCAGGCUUCGGUGGCGCGAUAGCGCCAACGUCCUCAACCUCCAAUGCAUCCCACCACAUGAUGAUGCCUGAAGAGCCUUGGUUUUUUG  -0.708
18. GACCAAUGCGCCCUCAGAGCUCGAGAACAUCUUCGGAUGCCGUGGAGGCAGACUUCGGUGGCGCGAUAGCGCCAACGUCCUCAACCUCCAAUGCAUCCCACCACAUGAUGAAGCCUGAAGAGCCUUGGUUUUUUG  -0.712
19. GACCAAUGUGCCCUCAGAGCUCGAGAACAUCUUCGGAUGCAGAGGAGGCAGGCUUCGGUGGCGCGAUAGCGCCAACGUCCUCAACCUCCAAUGCAUCCCACCACAUGAUGAUGCCUCAAGAGCAUUGGUUUUUUG  -0.905
20. GACCAAUGUGCCCUCAGAGCUCGAGAACAUCUUCGCAUGCAGAGGAGGCAGGCUUCGGUGGCGCGAUAGCGCCAACGUCCUCAUCCUCCAAUGCAUCCCACCACAUGAUGAUGCUUGAAGAUCCUUGGUUUUUUG  -1.01
21. GACCAAUGUGCCCUCAGAGCUCGAGAACAUCUUCGGAUGCAGAGGACGCAGGCUUCGGUGGCGCGAUAGCGCCAACGUCCUUAACCUCCAAUGCAUCCCACCACAUGAUGAUGCCUGAAGAGCCUUGGUUUUUUG  -1.06
22. GACCAAUGUGCCCUCAGAGCUCGAGAACAUCUUCGGAUGCAGAGGAGGCAGGCUUCGGUGGCACGAUAGCGCCAACGUCCUCAACCUCCAAUGCAUCCCACCACAUGAUGAUGCCUGAAGAGCCUUCGUUUUUUG  -1.12
23. GACCAAUGUGCCCUCAGAGCUCGAGAACAUCUUCGGAUGCAGACGAGGCAGGCUUCGGUGGCGCGAUAGCGCCAACGUCCUCACCCUCCAAUGCAUCCCACCACAUGAUGAUGCUUGAAGAGCCUUGGUUUUUUG  -1.3
24. GACCAAUGUGCCCUCAGAGCUCGAGAACAUCUUCGGAUGCAGAGGAGGCAGGCUUCAGUGGCGCGAUAGCGCUAACGACCUCAACCUCCAUUGCAUCCCACCACAUGAUGAUGCCUGAAGAGCCUUGGUUUUUUG  -1.7
25. GACCAAUGUGCCCUCAGAGCUCGAGAACAUCUUCGGAUGCAGAGGAGACAGGCUUCGGUGGCGCGAUAGCGCCAACGUCCUCAACCUCCAAUGCAUCCCACCACAUGAUGAUGCCUGAAGAGCCUUGUUUUUUUG  -2.01
26. GACCAAUGUGCCCUCAGAGCUCGAGAACAUCUUCGGAUGCAGAAGAGGCAGGCUUCGGUGGCUCGAUAGCGCCAACGUCCUCAACCUCCAAUGCAUCCCACCACAUGAUGAUGCCUGAAGAGCCGUGGUUUUUUG  -2.03
27. GACCAAUGUGCCCUCAGAGCUCGAGAACAUCUUCAGAUGCAGAGGAGGCAGGCUUCGGUGGCGCGAUAGCGCCAACGUCCUCAACCUCCAAUGCAUCCCACCACAUGAUGAUGCCUGAAGAGCCUUGGUUUUUUG  -2.23
28. GACCAAUGUGCCCUCAGAGCUCGAGAACAUCUUCGGAUGCAGAGGAGGCAGGCUUCAGUGGCGCGAUAGCGCCAACGUCCUCAACCUCCAAUGCAUCCCACCACAUGAUGAUGCCUAAUGAGCCUUGGUUUUUUU  -2.27
29. GACCAAUGUUCCCUCAGAGCUCGAGAACAUCUUCGGAUGCAGAGGAGGCAGGCUUCGGUGGCGCGAUAUCGCCAACGUCCUCAACCUCCAAUGCUUCCCACAACAUGAUGAUGGCUGAAGAGCCUUGGGUUUUUG  -2.33
30. GACCAAUGUGCCCUCAGAGCUCGAGAACAUCUUCGGAUGCAGAGAAGGCAGGCUUUGGUGGCGCGAUAGCGUCAACGUCCUCAACCUCCAAUGAAUCCCAACACAUGAUGAUGCCUGAAGAGCCUUGGUUUUUUG  -2.54
31. GACCAAUGUGCCCUCAGAGCUCGAGAACAUCUUCGGAUGCAGAAGAGGCAGGCUUCGGUGGCGCGAUAGCGCCAACGUCCUCAACCUCCAAAGCAUUCCACCACAUGAUGAUGCCUGAAGAGCCUUGGUUUUUUG  -2.59
32. GACCAAUGUGCCCUCAGAGCUCGAGAACAUCUUCGGAUGCAGAGGAGGCAGGCUUCGGUGGCGCGAUAGCGCCAACGUCCUCAACCUCCAAUGCAUCCCACCACAUUAUGAUGCCUGAAGAGGCUUGGUUUUUUG  -2.76
33. GACCAAUGUGCCCUCAGAGCUCGAGAACAUCUUCGGAUGCAGAGGAGGCAGUCUUCGGUGGCGCGAUAGCGCAAACGUCCUCAACCUCCAAGGCAUCCCACCACAUGAUGAUGCCUGAAGAGCCUUGGUUUUUUG  -2.91
34. GACCAAUGUUCCCUCAGAGCUCGAGAACAUCUUCGGAUGCAAAGCAGGCAGGCUUCGGUGGCGCGAUAGCGCCAACGUCCUCAACCUCCAAUGCAUCCCACCACAUGAUGAUGCCUGAAGAGCCUUGGUUUUUUG  -3.03
35. GACCAAUGGGCCCUCAGAGCUGGAGAACAUCUUCGGAUGCAGAGGAGGCAGGCUUCGGUGGCGCGAUAGCGCCAACGUCCUCAACCUCCAAUGCAUCCCACCACAUGAUGAUGCCUGAAGAGCCUUGGUUUUUUG  -3.24
36. GACCAAUGUGCCCUCAGAGCUCGAGAACAUCUUCGGAUGCAGAGGAGGCAGGCUUCGGUGGCGCGAUAGCAACAACGUCCUCAACCUCCAAUGCAUCCCACAACAUGAUGAUGCCUGAAGAGCCUUGGUUUUUUG  -3.77
37. GACCAAUGUGCCCUCAGAGCUCGAAGACAUCUUCGGAUGCAGAGGAGGCAGGCUUCGGUGGCGCGAUAGCGCUAACGUCCUCAACCUCCAAUGCAUCCCACCACAUGAUGAUGCCUGAAGAGCCUUGAUUUUUUG  -4.47
38. GACCAAUGUGCCCUCAGAGCUCGAGAACAUCUUCGGAUGCAGAGGAUGCAGGCUUCAGUGGCGCGAUAGCGCAAACGUCCUCAAGCUCCAAUGCAUCCCACCACAAGAUGAUGCCUGAAGAGCCUUGGUUUUAUG  -4.51
39. GACCAAUGUGCCCUCAGAGCUCGAGAACAUCUUCCGAUGCAGAGGAGGCUGGCUUCGGUGGCGCGAUAGCGCCAACGUCCUCAACCUCCAAUGCAUCCCACCACAUGAUGAUGCCUGUAGAGCCUUGGUUUUUUG  -5.01
40. GACCAAUGUGCCCUCAGAGCUCGAGAACAUCUUCGGAUGCAGAGGAGGCAGGCUUCGCUGGCGCGAUAGCGCCACCGUCCUCAACCUCCAAUGCAUCCCACCACAUGUUGAUGCCUGAAGAGCCUUGGUUUAUUG  -5.79
41. GACCAAUGUGCCCUCAGAGCUCGAGAACAUCUUCGGAUGCAGAGAAGGCAGUAUUCGGUGGCGCGAUAGCGCCAACGUCCUCAACCUCCAAUGCAUCUCACCACAUGAUAAUGCCUGAACAGCCUUGGAUUUUUG  -6.11
42. GACCAAUGUGCCCUCAGAGCUCGAGAACAUCUUCGGAUGCAGAGCAGGCAUGCUUCGGUGGCGCAAUAGCGCCAACGUCCUCAACCUCCAAUGCAUCCCACCACAUGAUGAUUCCUGAAGAGUCUUGGUUUUUUG  -7.22
